Reference: paper PMC3467252

Columns and labels:
Assay in all cases: SPR; surface plasmon resonance; who was immobilised is not told in what was shown; mean +/- 95% CI, n=3
BAFFR-Fc = BAFFR-Fc (UniProt Q96RJ3)
BCMA-Fc = BCMA-Fc (UniProt Q02223)
[1] = target: TACI-Fc (extracellular domain of the BLyS receptor TACI fused to the Fc region of human IgG1) (UniProt O14836)
Sequence of UniProt O14836 (O14836 1-165): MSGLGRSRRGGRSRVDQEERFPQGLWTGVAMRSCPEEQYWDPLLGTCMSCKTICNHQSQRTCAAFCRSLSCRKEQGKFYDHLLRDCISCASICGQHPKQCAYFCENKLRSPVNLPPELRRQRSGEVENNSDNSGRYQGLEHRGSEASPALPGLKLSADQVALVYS

Sequence of UniProt Q02223 (Q02223 1-54): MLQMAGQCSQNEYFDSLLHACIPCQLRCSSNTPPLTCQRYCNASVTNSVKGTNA
Sequence of UniProt Q96RJ3 (Q96RJ3 1-78): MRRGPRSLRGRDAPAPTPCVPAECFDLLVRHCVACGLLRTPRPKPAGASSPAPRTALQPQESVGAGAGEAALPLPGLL

BLyS-gelonin fusion toxin
Kd (BAFFR-Fc): 2.6 nM | Kd (BCMA-Fc): 6.2 nM | Kd [1]: 0.8 nM
